Assay results published in patent publication US20230227514A1, “BETA-ARRESTIN COMPOSITIONS AND ASSOCIATED METHODS” (Duke University, priority 2020, published 2023).

Legend:
Format in all cases: cell-based
[1] = target: T1, β2AR (Homo sapiens, UniProt P07550); experiment: BRET assay of βarrestin1 construct recruitment to β2AR; conditions: with or without isoproterenol stimulation
T1 construct: Flag (N); expressed in transfected cells
Description: The bar graph summarizes the BRET ratio corresponding to the recruitment of βarrestin1 or βarrestin1-SUMO1 fusion protein to the β2AR with or without isoproterenol (β2AR agonist) stimulation, as described in Example 1 herein.
(§1) BRET assays. […] Titration assays were first completed, which allowed determination of the specificity of association among different interaction partners. See Nagi and Shenoy. 2019, supra; Gales et al. 2005. Nature methods 2:177-184; Nagi et al. 2015. Cellular and molecular life sciences: CMLS 72:3543-3557; Audet and Pineyro. 2011. Methods in molecular biology 756:149-163; and Rebois et al. 2006. Journal of cell science 119:2807-2818. […] BRET readings were acquired using Synergy Neo2 plate reader and obtained 5 min after manual addition of Rluc substrate, coelenterazine h (Promega) to a final concentration of 5 μM.
(§2) The BRET signal generated was determined by calculating the ratio of light emitted by YFP (520-550 nm) over the light emitted by Rluc (440-480 nm). These values were then corrected by subtracting the background signal (detected when the Rluc-tagged construct was expressed without acceptor) from the BRET signal detected in cells co-expressing both donor and acceptor constructs. Agonist-induced BRET values were calculated by subtracting net BRET values of non-stimulated conditions from net BRET values corresponding to the stimulated conditions.

[2] = target: T2, glucagon receptor (GCGR) (Homo sapiens, UniProt P47871); experiment: BRET assay of βarrestin1 construct recruitment to GCGR; conditions: GCGR activation with glucagon
T2 construct: expressed in transfected cells; host or cells: HEK-293T
T2 sequence (P47871 26-477, species assumed): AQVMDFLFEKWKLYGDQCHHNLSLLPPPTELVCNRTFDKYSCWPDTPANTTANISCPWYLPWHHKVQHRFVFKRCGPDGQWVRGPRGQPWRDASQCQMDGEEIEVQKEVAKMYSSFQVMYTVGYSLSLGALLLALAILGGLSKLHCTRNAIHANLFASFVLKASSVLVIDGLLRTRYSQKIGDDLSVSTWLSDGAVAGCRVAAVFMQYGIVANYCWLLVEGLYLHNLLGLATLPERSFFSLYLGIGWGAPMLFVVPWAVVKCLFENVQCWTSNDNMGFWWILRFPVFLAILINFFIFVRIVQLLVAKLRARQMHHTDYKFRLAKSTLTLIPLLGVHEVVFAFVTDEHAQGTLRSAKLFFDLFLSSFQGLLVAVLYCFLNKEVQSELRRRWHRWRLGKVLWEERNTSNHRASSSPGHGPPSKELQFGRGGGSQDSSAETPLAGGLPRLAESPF
Description: The bar graph summarizes the BRET ratio corresponding to the recruitment of βarrestin1 or βarrestin1-SUMO1 fusion protein to the GCGR with or without glucagon (GCGR agonist) stimulation, as described in Example 1 herein.
as §1, §2

[3] = target: T1, β2AR; experiment: Confocal trafficking and colocalization with β2AR
Experimental: (§3) Immunostaining and confocal microscopy. […] Twenty-four hours post-transfection, cells were serum-starved for 4 h, and either left untreated or treated with respective agonists for the indicated times in the Figure descriptions. After stimulation, cells were fixed with 5% formaldehyde diluted in phosphate-buffered saline (PBS), permeabilized with 0.1% Triton in PBS containing 2% bovine serum albumin for 20 min and incubated at room temperature with appropriate primary antibody. The next day, cells were washed three times with PBS and incubated with Alexa594 conjugated secondary antibody for 1 h, followed by repeated washes using PBS. Confocal images were acquired using Zeiss LSM510 laser-scanning microscope using multitrack sequential with excitation (488 and 568 nm) and emission (BP 505-550 nm and LP 585 nm) filter sets. Images (1024×1024 pixels) were collected using either a 63× or 100× oil immersion lens. Images were processed for Figure presentation using Adobe Photoshop software, and any increase or decrease of brightness/contrast was applied to the entire image. The nuclear rim localization of YFP-βarrestin2-SUMO1 is readily visualized in cells with low to moderate expression of YFP-protein. In cells with high expression, this localization is present, and can be discerned by enlarging sections of the nuclear rim.
For βarrestin2-SUMO1, plasma membrane translocation was detected upon β2AR agonist activation, and, intriguingly, βarrestin2-SUMO1 was detected in endocytic vesicles. […] Confocal images were taken of cells stably expressing the β2AR and transiently expressing YFP-SUMO1 (data not shown). In both quiescent and agonist-treated cells, the SUMO1 protein remained in the nucleus. […] See Shenoy et al. 2007, supra; Shenoy and Lefkowitz. 2005. J Biol Chem 280:15315-15324; and Shenoy and Lefkowitz. 2003. J Biol Chem 278:14498-14506. Therefore, the endosomal trafficking was compared for βarrestin2-ubiquitin (βarrestin2-Ub) fusion protein and internalized β2ARs. […]

[4] = system: RanGAP1; experiment: Western blotting of RanGAP1 levels on βarrestin2 overexpression; conditions: RanGAP1/GAPDH ratio, Western blot
Description: HEK-293T cells stably transfected with β2AR were transfected with vector or YFP-βarrestin2. […] The unmodified RanGAP1 band (70 kDa) was divided by cognate GAPDH and plotted as a ratio. The bar graph (bottom panel) summarizes values from three independent experiments. *p=0.006, unpaired t test.
In these experiments, SUMO1 by itself is not localized at the nuclear membrane in HEK-293 cells; only βarrestin2-SUMO1 is localized at the nuclear membrane. […] It is well established that RanGAP1 is expressed in cells predominantly in the SUMOylated state. This is illustrated in immunoblots (FIGS. 9-11), in which the RanGAP1 antibody detects two bands, SUMO-RanGAP1 (approximately 90 kDa) and RanGAP1 (approximately 70 kDa).

[5] = target: T3, RanGAP1 (Homo sapiens, UniProt P46060); experiment: Confocal colocalization with endogenous RanGAP1 at the nuclear envelope; conditions: HEK-293 cells with or without β2AR agonist stimulation
T3 construct: endogenous in cells; host or cells: HEK-293T / HEK-293
T3 sequence (P46060 2-587 limits assumed): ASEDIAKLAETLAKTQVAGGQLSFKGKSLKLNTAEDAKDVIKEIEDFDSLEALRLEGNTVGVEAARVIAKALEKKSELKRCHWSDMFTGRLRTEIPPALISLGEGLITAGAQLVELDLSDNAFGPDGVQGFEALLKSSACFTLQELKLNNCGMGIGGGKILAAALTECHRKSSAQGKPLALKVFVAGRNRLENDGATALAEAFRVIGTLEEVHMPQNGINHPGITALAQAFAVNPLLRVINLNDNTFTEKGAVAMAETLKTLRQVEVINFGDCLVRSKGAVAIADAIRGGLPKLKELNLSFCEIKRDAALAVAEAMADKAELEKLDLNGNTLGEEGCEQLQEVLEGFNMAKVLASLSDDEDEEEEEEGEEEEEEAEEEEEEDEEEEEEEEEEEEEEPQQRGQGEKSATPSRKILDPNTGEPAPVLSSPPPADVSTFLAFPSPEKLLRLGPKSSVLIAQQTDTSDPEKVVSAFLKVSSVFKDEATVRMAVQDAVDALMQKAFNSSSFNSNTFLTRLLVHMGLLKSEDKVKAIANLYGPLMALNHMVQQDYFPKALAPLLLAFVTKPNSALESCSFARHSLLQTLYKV
T3 sequence (P63165 2-97 partner limits assumed): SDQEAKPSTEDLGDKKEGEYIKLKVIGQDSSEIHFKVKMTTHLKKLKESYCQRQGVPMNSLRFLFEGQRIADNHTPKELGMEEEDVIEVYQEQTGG
Experimental: as §3, with “rim. […]” for “rim.”

[6] = target: T4, D1 dopamine receptor (D1R) (Homo sapiens, UniProt P21728); experiment: Confocal trafficking and colocalization with D1R; conditions: HEK-293 cells with stable D1R expression; dopamine 15 minutes
T4 construct: expressed in transfected cells
T4 sequence (P21728 whole entry): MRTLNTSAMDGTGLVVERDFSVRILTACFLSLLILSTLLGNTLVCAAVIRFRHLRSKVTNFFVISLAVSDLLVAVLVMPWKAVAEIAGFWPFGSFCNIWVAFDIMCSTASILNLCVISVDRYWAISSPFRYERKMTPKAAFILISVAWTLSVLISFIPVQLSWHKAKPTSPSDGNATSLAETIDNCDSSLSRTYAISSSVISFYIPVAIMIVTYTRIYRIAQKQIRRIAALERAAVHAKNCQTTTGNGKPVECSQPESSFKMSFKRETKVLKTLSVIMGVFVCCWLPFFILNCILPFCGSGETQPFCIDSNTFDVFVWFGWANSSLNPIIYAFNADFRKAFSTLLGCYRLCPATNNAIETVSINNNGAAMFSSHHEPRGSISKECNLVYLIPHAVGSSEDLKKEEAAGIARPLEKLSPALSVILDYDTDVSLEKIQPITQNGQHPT
Experimental: as §3, with “rim. […]” for “rim.”

[7] = target: T5, D2R (Homo sapiens, UniProt P14416); experiment: Confocal trafficking and colocalization with D2R; conditions: HEK-293 cells stably expressing D2R
T5 construct: HA (N); expressed in transfected cells
T5 sequence (P14416 whole entry): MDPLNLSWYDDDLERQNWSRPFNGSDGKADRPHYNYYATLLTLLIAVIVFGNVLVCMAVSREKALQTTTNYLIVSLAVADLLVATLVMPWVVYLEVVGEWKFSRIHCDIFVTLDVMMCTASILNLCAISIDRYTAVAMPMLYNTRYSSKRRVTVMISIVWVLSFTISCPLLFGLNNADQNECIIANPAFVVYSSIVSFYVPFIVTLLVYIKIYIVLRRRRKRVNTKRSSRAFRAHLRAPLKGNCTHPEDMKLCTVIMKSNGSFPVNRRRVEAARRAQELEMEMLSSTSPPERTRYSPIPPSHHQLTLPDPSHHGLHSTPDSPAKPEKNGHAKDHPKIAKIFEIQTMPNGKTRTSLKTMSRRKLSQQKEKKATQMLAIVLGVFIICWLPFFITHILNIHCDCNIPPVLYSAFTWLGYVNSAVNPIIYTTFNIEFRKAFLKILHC
Experimental: as §3, with “rim. […]” for “rim.”

[8] = target: T6, SUMO1 (Homo sapiens, UniProt P63165); experiment: SUMOylation of FLAG-βarrestin2 constructs co-expressed with His6-SUMO1 (FLAG IP, immunoblot); conditions: overexpressed in HEK-293 cells along with His-SUMO1
T6 construct: His6 (N); expressed in transfected cells; host or cells: HEK-293 (transient)
T6 sequence (P63165 1-97 limits assumed): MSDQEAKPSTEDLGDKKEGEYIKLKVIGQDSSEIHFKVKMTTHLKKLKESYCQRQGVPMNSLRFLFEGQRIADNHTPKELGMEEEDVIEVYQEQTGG
Description: HEK-293 cells were transfected with vector, FLAG-βarrestin2 (WT) or FLAG-βarrestin2-K296R along with His6-SUMO1.
SUMOylation is targeted to a canonical protein sequence (Ψ-K-X-D/E), where Ψ is an aliphatic amino acid, K is the target site for the covalent modification by SUMO, X is any amino acid and is followed by an acidic residue. See Sampson et al. 2001. J Biol Chem 276:21664-21669. […] See Wyatt et al. 2011 and Xiao et al. 2015, both supra.

**Q.** How did the “association with β2AR by BRET ratio” value [1] turn out when “βarrestin1-SUMO1: rat βarrestin1 polypeptide fused to human SUMO1 (SEQ ID NO:2)” was run?
**A.** significantly more binding

**Q.** And the “association with GCGR by BRET” value [2]?
**A.** significantly more binding

**Q.** And the “colocalization of βarrestin1 constructs with β2AR (confocal)” value ([3]; HEK-293 cells, isoproterenol)?
**A.** strong colocalization

**Q.** “βarrestin1: wild-type rat βarrestin1 (SEQ ID NO:4), used as comparator [reference compound]” was tested. Which “association with β2AR by BRET ratio” value [1] did it give?
**A.** weak association

**Q.** What about the “association with GCGR by BRET” value [2] of the same molecule?
**A.** weak association

**Q.** “βarrestin2: wild-type rat βarrestin2 (SEQ ID NO:3), tagged, used as comparator [reference compound]” was tested. Which “increase of unmodified RanGAP1 band (approximately 70 kDa) versus vector transfected cells” value [4] did it give?
**A.** 50%

**Q.** What about the “colocalization with endogenous RanGAP1 at the nuclear envelope” value [5] of the same molecule?
**A.** Minimal colocalization

**Q.** What about the “colocalization / complexes with β2AR after agonist activation (confocal)” value ([3]; HEK-293 cells with stable β2AR expression, agonist up to 20 minutes) of the same molecule?
**A.** no colocalization was detected

**Q.** And the “association with D1R after dopamine activation (confocal)” value [6]?
**A.** weak association

**Q.** What about the “stability of association with activated D2R (confocal)” value [7] of the same molecule?
**A.** not stable

B1: βarrestin2-K296R: rat βarrestin2 with lysine-296 of the canonical SUMOylation site mutated to arginine (protein)
chain: MGEKPGTRVFKKSSPNCKLTVYLGKRDFVDHLDKVDPVDGVVLVDPDYLKDRKVFVTLTCAFRYGREDLDVLGLSFRKDLFIATYQAFPPMPNPPRPPTRLQDRLLKKLGQHAHPFFFTIPQNLPCSVTLQPGPEDTGKACGVDFEIRAFCAKSIEEKSHKRNSVRLIIRKVQFAPETPGPQPSAETTRHFLMSDRRSLHLEASLDKELYYHGEPLNVNVHVTNNSAKTVKKIRVSVRQYADICLFSTAQYKCPVAQLEQDDQVSPSSTFCKVYTITPLLSDNREKRGLALDGQLRHEDTNLASSTIVKEGANKEVLGILVSYRVKVKLVVSRGGDVSVELPFVLMHPKPHDHITLPRPQSAPREIDIPVDTNLIEFDTNYATDDDIVFEDFARLRLKGMKDDDCDDQFC
modifications: left off: large carriers
**Q.** B1 was tested. Which “SUMOylation compared with rat βarrestin2 (WT)” value [8] did it give?
**A.** significantly decreased but not eliminated
